{"source": "paper PMC3226628", "about": "“The Golgi Localization of GOLPH2 (GP73/GOLM1) Is Determined by the Transmembrane and Cytoplamic Sequences” (PLoS ONE, 2011)", "key": {"[1]": {"target": "the molecule itself", "assay": "SDS-PAGE under non-reducing and reducing conditions; purified GOLPH2-Δ(1–55) and cysteine mutants boiled with 0 to 100 mM 2-mercaptoethanol, 10% SDS-PAGE; shows disulfide-linked oligomers"}, "[2]": {"target": "the molecule itself", "assay": "native gel or EMSA; native-PAGE of purified GOLPH2-Δ(1–55) and cysteine mutants, loaded directly or boiled with 2% SDS and 140 mM 2-mercaptoethanol; BSA monomer, dimer and tetramer as markers"}, "[3]": {"target": "the molecule itself", "assay": "SDS-PAGE under non-reducing conditions with immunoblot; lysates of HeLa cells 36 h after transfection with pCR3.1-GOLPH2-FLAG or mutants; immunoblot with FLAG antibody"}}, "data": [{"protein": "GOLPH2-Δ(1–55) (domain or fragment, human, UniProt Q8NBJ4 56-401, looked up, Golgi phosphoprotein 2 (GOLPH2, GP73, GOLM1), human, residues 1-55 deleted; C-terminal luminal region, amino acids 56-401; also called purified wild-type GOLPH2; GOLPH2-Δ(1–55) fusion protein; source: E. coli BL21 (DE3), pET22b(+), purified (Ni-NTA)) AAAERGAVELKKNEFQGELEKQREQLDKIQSSHNFQLESVNKLYQDEKAVLVNNITTGERLIRVLQDQLKTLQRNYGRLQQDVLQFQKNQTNLERKFSYDLSQCINQMKEVKEQCEERIEEVTKKGNEAVASRDLSENNDQRQQLQALSEPQPRLQAAGLPHTEVPQGKGNVLGNSKSQTPAPSSEVVLDSKRQVEKEETNEIQVVNEEPQRDRLPQEPGREQVVEDRPVGGRGFGGAGELGQTPQVQAALSVSQENPEMEGPERDQLVIPDGQEEEQEAAGEGRNQQKLRGEDDYNMDENEAESETDKQAALAGNDRNIDVFNVEDQKRDTINLLDQREKRNHTL", "values": [{"measurement": "binding result", "setting": "[1]", "value": "binds"}]}, {"protein": "GOLPH2-Δ(1–55) C159A-C170A (domain or fragment, human, UniProt Q8NBJ4 56-401, looked up, GOLPH2 (GP73, GOLM1), human, residues 1-55 deleted (amino acids 56-401), C159A and C170A; Monomer on non-reducing SDS-PAGE, same migration as the wild type on native-PAGE; also called double mutant C159A–C170A; source: E. coli BL21 (DE3), pET22b(+), purified (Ni-NTA)) AAAERGAVELKKNEFQGELEKQREQLDKIQSSHNFQLESVNKLYQDEKAVLVNNITTGERLIRVLQDQLKTLQRNYGRLQQDVLQFQKNQTNLERKFSYDLSQAINQMKEVKEQAEERIEEVTKKGNEAVASRDLSENNDQRQQLQALSEPQPRLQAAGLPHTEVPQGKGNVLGNSKSQTPAPSSEVVLDSKRQVEKEETNEIQVVNEEPQRDRLPQEPGREQVVEDRPVGGRGFGGAGELGQTPQVQAALSVSQENPEMEGPERDQLVIPDGQEEEQEAAGEGRNQQKLRGEDDYNMDENEAESETDKQAALAGNDRNIDVFNVEDQKRDTINLLDQREKRNHTL", "values": [{"measurement": "binding result", "setting": "[2]", "value": "binds"}]}, {"protein": "GOLPH2-Δ(1–55) C170A (domain or fragment, human, UniProt Q8NBJ4 56-401, looked up, GOLPH2 (GP73, GOLM1), human, residues 1-55 deleted (amino acids 56-401), C170A; also called single mutant C170A; source: E. coli BL21 (DE3), pET22b(+), purified (Ni-NTA)) AAAERGAVELKKNEFQGELEKQREQLDKIQSSHNFQLESVNKLYQDEKAVLVNNITTGERLIRVLQDQLKTLQRNYGRLQQDVLQFQKNQTNLERKFSYDLSQCINQMKEVKEQAEERIEEVTKKGNEAVASRDLSENNDQRQQLQALSEPQPRLQAAGLPHTEVPQGKGNVLGNSKSQTPAPSSEVVLDSKRQVEKEETNEIQVVNEEPQRDRLPQEPGREQVVEDRPVGGRGFGGAGELGQTPQVQAALSVSQENPEMEGPERDQLVIPDGQEEEQEAAGEGRNQQKLRGEDDYNMDENEAESETDKQAALAGNDRNIDVFNVEDQKRDTINLLDQREKRNHTL", "values": [{"measurement": "binding result", "setting": "[1]", "value": "binds"}]}, {"protein": "GOLPH2-Δ(1–55) C159A (domain or fragment, human, UniProt Q8NBJ4 56-401, looked up, GOLPH2 (GP73, GOLM1), human, residues 1-55 deleted (amino acids 56-401), C159A; also called single mutant C159A; source: E. coli BL21 (DE3), pET22b(+), purified (Ni-NTA)) AAAERGAVELKKNEFQGELEKQREQLDKIQSSHNFQLESVNKLYQDEKAVLVNNITTGERLIRVLQDQLKTLQRNYGRLQQDVLQFQKNQTNLERKFSYDLSQAINQMKEVKEQCEERIEEVTKKGNEAVASRDLSENNDQRQQLQALSEPQPRLQAAGLPHTEVPQGKGNVLGNSKSQTPAPSSEVVLDSKRQVEKEETNEIQVVNEEPQRDRLPQEPGREQVVEDRPVGGRGFGGAGELGQTPQVQAALSVSQENPEMEGPERDQLVIPDGQEEEQEAAGEGRNQQKLRGEDDYNMDENEAESETDKQAALAGNDRNIDVFNVEDQKRDTINLLDQREKRNHTL", "values": [{"measurement": "binding result", "setting": "[2]", "value": "binds"}]}, {"protein": "GOLPH2-FLAG (wild-type, full length) (natural protein, human, UniProt Q8NBJ4 1-401, looked up, Golgi phosphoprotein 2 (GOLPH2, GP73, GOLM1), human, full-length cDNA from Huh7 cells; also called pCR3.1-GOLPH2-FLAG; wild-type GOLPH2; source: HeLa, transfected, in lysate; not shown: FLAG, C-terminal, kept) MMGLGNGRRSMKSPPLVLAALVACIIVLGFNYWIASSRSVDLQTRIMELEGRVRRAAAERGAVELKKNEFQGELEKQREQLDKIQSSHNFQLESVNKLYQDEKAVLVNNITTGERLIRVLQDQLKTLQRNYGRLQQDVLQFQKNQTNLERKFSYDLSQCINQMKEVKEQCEERIEEVTKKGNEAVASRDLSENNDQRQQLQALSEPQPRLQAAGLPHTEVPQGKGNVLGNSKSQTPAPSSEVVLDSKRQVEKEETNEIQVVNEEPQRDRLPQEPGREQVVEDRPVGGRGFGGAGELGQTPQVQAALSVSQENPEMEGPERDQLVIPDGQEEEQEAAGEGRNQQKLRGEDDYNMDENEAESETDKQAALAGNDRNIDVFNVEDQKRDTINLLDQREKRNHTL", "values": [{"measurement": "stoichiometry N", "setting": "[3]", "value": 2}]}]}
